Tests used:
HeLa Kyoto [1] = experiment: thermal stability score vs G1/S (z-score of summed log2 fold changes over temperatures); higher = more thermally stable than in G1/S
HeLa Kyoto [2] = experiment: melting temperature (median over replicates), in situ; higher = more thermally stable
HeLa Kyoto [3] = experiment: solubility change mitosis vs G1/S (difference of NP-40 vs SDS log2 ratios) (log2 ratio difference); higher = more soluble in mitosis
HeLa Kyoto [4] = experiment: solubility in G1/S (NP-40 vs SDS abundance) (log2 ratio); higher = more soluble; conditions: cell cycle stage: G1/S
[5] = cell cycle stage: early G1 (4.5 h after nocodazole release)
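Throughout, for melting temperature (median over replicates), in situ: HeLa Kyoto cells synchronized by double thymidine or nocodazole block, proteins quantified by TMT10plex mass spectrometry, three independent biological replicates.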
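Throughout, for solubility change mitosis vs G1/S (difference of NP-40 vs SDS log2 ratios): synchronized HeLa Kyoto cells (double thymidine block for G1/S, nocodazole release for mitosis), protein amounts in NP-40 versus SDS lysates quantified by mass spectrometry, three biological replicates.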
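Throughout, for solubility in G1/S (NP-40 vs SDS abundance): HeLa Kyoto cells arrested at G1/S by double thymidine block, proteins quantified by TMT10plex mass spectrometry in mild NP-40 versus SDS extracts, three biological replicates.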
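Throughout, for thermal stability score vs G1/S (z-score of summed log2 fold changes over temperatures): synchronized HeLa Kyoto cells, proteins quantified by TMT10plex mass spectrometry, three biological replicates, mitosis taken 0.5 h after nocodazole release, G1/S directly after double thymidine block.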

**Q.** With “MVWKVAVFLSVALGIGAVPIDDPEDGGKHWVVIVAGSNGWYNYRHQADACHAYQIIHRNGIPDEQIVVMMYDDIAYSEDNPTPGIVINRPNGTDVYQGVPKDYTGEDVTPQNFLAVLRGDAEAVKGIGSGKVLKSGPQDHVFIYFTDHGSTGILVFPNEDLHVKDLNETIHYMYKHKMYRKMVFYIEACESGSMMNHLPDNINVYATTAANPRESSYACYYDEKRSTYLGDWYSVNWMEDSDVEDLTKETLHKQYHLVKSHTNTSHVMQYGNKTISTMKVMQFQGMKRKASSPVPLPPVTHLDLTPSPDVPLTIMKRKLMNTNDLEESRQLTEEIQRHLDARHLIEKSVRKIVSLLAASEAEVEQLLSERAPLTGHSCYPEALLHFRTHCFNWHSPTYEYALRHLYVLVNLCEKPYPLHRIKLSMDHVCLGHY [LGMN]” as the sequence, how does the thermal stability score (HeLa Kyoto [1]; [5]) read?
**A.** Its thermal stability score is 5.08.

**Q.** What about the thermal stability score (HeLa Kyoto [1]; cell cycle stage: mitosis) of the same sequence?
**A.** The thermal stability score was 5.7.

**Q.** What about the melting temperature (HeLa Kyoto [2]; cell cycle stage: G1/S) of the same sequence?
**A.** The melting temperature was 53.8 °C.

**Q.** And the melting temperature (HeLa Kyoto [2]; cell cycle stage: mitosis)?
**A.** The melting temperature was 54.2 °C.

**Q.** What about the “solubility change mitosis (log2)” value (HeLa Kyoto [3]) of the same sequence?
**A.** The value was -0.0973.

**Q.** What about the “solubility in G1/S (log2)” value (HeLa Kyoto [4]) of the same sequence?
**A.** The value was 0.416.

**Q.** With “MWIQVRTIDGSKTCTIEDVSRKATIEELRERVWALFDVRPECQRLFYRGKQLENGYTLFDYDVGLNDIIQLLVRPDPDHLPGTSTQIEAKPCSNSPPKVKKAPRVGPSNQPSTSARARLIDPGFGIYKVNELVDARDVGLGAWFEAHIHSVTRASDGQSRGKTPLKNGSSCKRTNGNIKHKSKENTNKLDSVPSTSNSDCVAADEDVIYHIQYDEYPESGTLEMNVKDLRPRARTILKWNELNVGDVVMVNYNVESPGQRGFWFDAEITTLKTISRTKKELRVKIFLGGSEGTLNDCKIISVDEIFKIERPGAHPLSFADGKFLRRNDPECDLCGGDPEKKCHSCSCRVCGGKHEPNMQLLCDECNVAYHIYCLNPPLDKVPEEEYWYCPSCKTDSSEVVKAGERLKMSKKKAKMPSASTESRRDWGRGMACVGRTRECTIVPSNHYGPIPGIPVGSTWRFRVQVSEAGVHRPHVGGIHGRSNDGAYSLVLAGGFADEVDRGDEFTYTGSGGKNLAGNKRIGAPSADQTLTNMNRALALNCDAPLDDKIGAESRNWRAGKPVRVIRSFKGRKISKYAPEEGNRYDGIYKVVKYWPEISSSHGFLVWRYLLRRDDVEPAPWTSEGIERSRRLCLRLQYPAGYPSDKEGKKPKGQSKKQPSGTTKRPISDDDCPSASKVYKASDSAEAIEAFQLTPQQQHLIREDCQNQKLWDEVLSHLVEGPNFLKKLEQSFMCVCCQELVYQPVTTECFHNVCKDCLQRSFKAQVFSCPACRHDLGQNYIMIPNEILQTLLDLFFPGYSKGR [UHRF2]” as the sequence, how does the thermal stability score (HeLa Kyoto [1]; [5]) read?
**A.** Its thermal stability score is 2.81.

**Q.** And the thermal stability score (HeLa Kyoto [1]; cell cycle stage: mitosis)?
**A.** The thermal stability score was 4.34.

**Q.** And the melting temperature (HeLa Kyoto [2]; cell cycle stage: G1/S)?
**A.** The melting temperature was 44.3 °C.

**Q.** What about the melting temperature (HeLa Kyoto [2]; cell cycle stage: mitosis) of the same sequence?
**A.** The melting temperature was 46.9 °C.

**Q.** What about the “solubility change mitosis (log2)” value (HeLa Kyoto [3]) of the same sequence?
**A.** The value was 0.175.

**Q.** What about the “solubility in G1/S (log2)” value (HeLa Kyoto [4]) of the same sequence?
**A.** Its value is -0.401.

**Q.** “MWKLLPAAGPAGGEPYRLLTGVEYVVGRKNCAILIENDQSISRNHAVLTANFSVTNLSQTDEIPVLTLKDNSKYGTFVNEEKMQNGFSRTLKSGDGITFGVFGSKFRIEYEPLVACSSCLDVSGKTALNQAILQLGGFTVNNWTEECTHLVMVSVKVTIKTICALICGRPIVKPEYFTEFLKAVESKKQPPQIESFYPPLDEPSIGSKNVDLSGRQERKQIFKGKTFIFLNAKQHKKLSSAVVFGGGEARLITEENEEEHNFFLAPGTCVVDTGITNSQTLIPDCQKKWIQSIMDMLQRQGLRPIPEAEIGLAVIFMTTKNYCDPQGHPSTGLKTTTPGPSLSQGVSVDEKLMPSAPVNTTTYVADTESEQADTWDLSERPKEIKVSKMEQKFRMLSQDAPTVKESCKTSSNNNSMVSNTLAKMRIPNYQLSPTKLPSINKSKDRASQQQQTNSIRNYFQPSTKKRERDEENQEMSSCKSARIETSCSLLEQTQPATPSLWKNKEQHLSENEPVDTNSDNNLFTDTDLKSIVKNSASKSHAAEKLRSNKKREMDDVAIEDEVLEQLFKDTKPELEIDVKVQKQEEDVNVRKRPRMDIETNDTFSDEAVPESSKISQENEIGKKRELKEDSLWSAKEISNNDKLQDDSEMLPKKLLLTEFRSLVIKNSTSRNPSGINDDYGQLKNFKKFKKVTYPGAGKLPHIIGGSDLIAHHARKNTELEEWLRQEMEVQNQHAKEESLADDLFRYNPYLKRRR [NBN]” was tested. Which thermal stability score (HeLa Kyoto [1]; [5]) did it give?
**A.** The thermal stability score was 0.727.

**Q.** And the thermal stability score (HeLa Kyoto [1]; cell cycle stage: mitosis)?
**A.** The thermal stability score was 1.8.

**Q.** What about the melting temperature (HeLa Kyoto [2]; cell cycle stage: G1/S) of the same sequence?
**A.** Its melting temperature is 48.7 °C.

**Q.** What about the melting temperature (HeLa Kyoto [2]; cell cycle stage: mitosis) of the same sequence?
**A.** The melting temperature was 49.7 °C.

**Q.** What about the “solubility change mitosis (log2)” value (HeLa Kyoto [3]) of the same sequence?
**A.** The value was -0.152.

**Q.** What about the “solubility in G1/S (log2)” value (HeLa Kyoto [4]) of the same sequence?
**A.** The value was -0.0211.

**Q.** Which results are given for “MWLQQRLKGLPGLLSSSWARRLLCLLGLLLLLLWFGGSGARRAAGGLHLLPWSRGEPGAAEPSACLEAATRAWRGLRERGEVVPLGPGVPALVANGFLALDVAANRLWVTPGEREPAVAPDFVPFVQLRPLSALAEAGEAVLLLREGLLRRVRCLQLGSPGPGPVAAGPGPASVSGLAAGSGRDCVLLQEDFLAHRGRPHVYLQRIQLNNPTERVAALQTVGPTAGPAPKAFTSTLEKVGDHQFLLYSGRSPPTPTGLVHLVVVAAKKLVNRLQVAPKTQLDETVLWVVHVSGPINPQVLKSKAAKELKALQDLARKEMLELLDMPAAELLQDHQLLWAQLFSPGVEMKKITDTHTPSGLTVNLTLYYMLSCSPAPLLSPSLSHRERDQMESTLNYEDHCFSGHATMHAENLWPGRLSSVQQILQLSDLWRLTLQKRGCKGLVKVGAPGILQGMVLSFGGLQFTENHLQFQADPDVLHNSYALHGIRYKNDHINLAVLADAEGKPYLHVSVESRGQPVKIYACKAGCLDEPVELTSAPTGHTFSVMVTQPITPLLYISTDLTHLQDLRHTLHLKAILAHDEHMAQQDPGLPFLFWFSVASLITLFHLFLFKLIYNEYCGPGAKPLFRSKEDPSV [KIAA2013]”?
**A.** thermal stability score (HeLa Kyoto [1]; [5]): -3.23; thermal stability score (HeLa Kyoto [1]; cell cycle stage: mitosis): -4.42; melting temperature (HeLa Kyoto [2]; cell cycle stage: G1/S): 56.9 °C; melting temperature (HeLa Kyoto [2]; cell cycle stage: mitosis): 56.1 °C; solubility change mitosis (log2) (HeLa Kyoto [3]): -0.126; solubility in G1/S (log2) (HeLa Kyoto [4]): -0.156

**Q.** Which results are given for “MWNMLIVAMCLALLGCLQAQELQGHVSIILLGATGDLAKKYLWQGLFQLYLDEAGRGHSFSFHGAALTAPKQGQELMAKALESLSCPKDMAPSHCAEHKDQFLQLSQYRQLKTAEDYQALNKDIEAQLQHAGLREAGRIFYFSVPPFAYEDIARNINSSCRPGPGAWLRVVLEKPFGHDHFSAQQLATELGTFFQEEEMYRVDHYLGKQAVAQILPFRDQNRKALDGLWNRHHVERVEIIMKETVDAEGRTSFYEEYGVIRDVLQNHLTEVLTLVAMELPHNVSSAEAVLRHKLQVFQALRGLQRGSAVVGQYQSYSEQVRRELQKPDSFHSLTPTFAAVLVHIDNLRWEGVPFILMSGKALDERVGYARILFKNQACCVQSEKHWAAAQSQCLPRQLVFHIGHGDLGSPAVLVSRNLFRPSLPSSWKEMEGPPGLRLFGSPLSDYYAYSPVRERDAHSVLLSHIFHGRKNFFITTENLLASWNFWTPLLESLAHKAPRLYPGGAENGRLLDFEFSSGRLFFSQQQPEQLVPGPGPAPMPSDFQVLRAKYRESPLVSAWSEELISKLANDIEATAVRAVRRFGQFHLALSGGSSPVALFQQLATAHYGFPWAHTHLWLVDERCVPLSDPESNFQGLQAHLLQHVRIPYYNIHPMPVHLQQRLCAEEDQGAQIYAREISALVANSSFDLVLLGMGADGHTASLFPQSPTGLDGEQLVVLTTSPSQPHRRMSLSLPLINRAKKVAVLVMGRMKREITTLVSRVGHEPKKWPISGVLPHSGQLVWYMDYDAFLG [H6PD]”?
**A.** thermal stability score (HeLa Kyoto [1]; [5]): 1.01; thermal stability score (HeLa Kyoto [1]; cell cycle stage: mitosis): 2.18; melting temperature (HeLa Kyoto [2]; cell cycle stage: G1/S): 53.3 °C; melting temperature (HeLa Kyoto [2]; cell cycle stage: mitosis): 53.7 °C; solubility change mitosis (log2) (HeLa Kyoto [3]): 0.0207; solubility in G1/S (log2) (HeLa Kyoto [4]): 0.122
